Test results published in paper PMC10786891, “Massively parallel profiling of RNA-targeting CRISPR-Cas13d”.

T1: EsCas13d, nuclease-dead (Eubacterium siraeum, UniProt B0MS50, R295A;H300A;R849A;H854A)
T1 sequence: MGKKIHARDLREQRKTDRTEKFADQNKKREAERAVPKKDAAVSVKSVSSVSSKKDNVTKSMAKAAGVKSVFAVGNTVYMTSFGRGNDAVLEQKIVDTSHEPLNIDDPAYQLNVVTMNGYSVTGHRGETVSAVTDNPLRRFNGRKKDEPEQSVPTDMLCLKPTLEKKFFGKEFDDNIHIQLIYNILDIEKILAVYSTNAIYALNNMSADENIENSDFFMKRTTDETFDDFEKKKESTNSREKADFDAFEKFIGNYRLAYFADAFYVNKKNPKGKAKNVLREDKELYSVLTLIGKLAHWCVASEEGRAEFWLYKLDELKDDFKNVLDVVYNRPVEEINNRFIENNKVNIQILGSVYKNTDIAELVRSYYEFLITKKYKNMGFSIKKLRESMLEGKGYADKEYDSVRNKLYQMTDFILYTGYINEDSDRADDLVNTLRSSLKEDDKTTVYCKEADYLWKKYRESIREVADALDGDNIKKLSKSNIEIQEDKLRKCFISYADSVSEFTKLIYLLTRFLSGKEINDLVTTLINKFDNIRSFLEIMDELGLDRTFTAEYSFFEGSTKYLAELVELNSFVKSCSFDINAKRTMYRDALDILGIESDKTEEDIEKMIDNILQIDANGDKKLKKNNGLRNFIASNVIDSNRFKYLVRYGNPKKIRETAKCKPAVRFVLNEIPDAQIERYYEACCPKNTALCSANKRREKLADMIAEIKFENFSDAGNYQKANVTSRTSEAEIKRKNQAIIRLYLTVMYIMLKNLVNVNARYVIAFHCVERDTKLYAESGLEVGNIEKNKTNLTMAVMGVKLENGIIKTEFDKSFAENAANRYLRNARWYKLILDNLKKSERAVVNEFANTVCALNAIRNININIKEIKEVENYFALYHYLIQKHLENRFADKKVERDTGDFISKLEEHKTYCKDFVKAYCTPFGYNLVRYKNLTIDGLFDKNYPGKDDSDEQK

B1: target 3 A11G,A12G (mixed)
RNA 1: CACCCGUGCAAAAUUGCAGGGGUCUAAAACGACCUGAAUAUUUCAGAUCAAA
RNA 2: GGGAAUGGAUCCACAUCUACGAAUUCGUUUUUGAUCUGAGGUAUUCAGGUCUGCAGAUCGGAAGAGCACACGU
B2: target 3 G3U,U7G (mixed)
RNA 1: CACCCGUGCAAAAUUGCAGGGGUCUAAAACGACCUGAAUAUUUCAGAUCAAA
RNA 2: GGGAAUGGAUCCACAUCUACGAAUUCGUUUUUGAUCUGAAAUAUGCAGUUCUGCAGAUCGGAAGAGCACACGU
B3: target 3 C6U,A11G (mixed)
RNA 1: CACCCGUGCAAAAUUGCAGGGGUCUAAAACGACCUGAAUAUUUCAGAUCAAA
RNA 2: GGGAAUGGAUCCACAUCUACGAAUUCGUUUUUGAUCUGAAGUAUUUAGGUCUGCAGAUCGGAAGAGCACACGU
B4: target 3 insU 3' of 11 (mixed)
RNA 1: CACCCGUGCAAAAUUGCAGGGGUCUAAAACGACCUGAAUAUUUCAGAUCAAA
RNA 2: GGGAAUGGAUCCACAUCUACGAAUUCGUUUUUGAUCUGAAAUUAUUCAGGUCUGCAGAUCGGAAGAGCACACGU
B5: target 3 U2C,U22A (mixed)
RNA 1: CACCCGUGCAAAAUUGCAGGGGUCUAAAACGACCUGAAUAUUUCAGAUCAAA
RNA 2: GGGAAUGGAUCCACAUCUACGAAUUCGUUAUUGAUCUGAAAUAUUCAGGCCUGCAGAUCGGAAGAGCACACGU
B6: target 3 U2A,U21A (mixed)
RNA 1: CACCCGUGCAAAAUUGCAGGGGUCUAAAACGACCUGAAUAUUUCAGAUCAAA
RNA 2: GGGAAUGGAUCCACAUCUACGAAUUCGUUUAUGAUCUGAAAUAUUCAGGACUGCAGAUCGGAAGAGCACACGU
B7: target 3 A5C,C6G (mixed)
RNA 1: CACCCGUGCAAAAUUGCAGGGGUCUAAAACGACCUGAAUAUUUCAGAUCAAA
RNA 2: GGGAAUGGAUCCACAUCUACGAAUUCGUUUUUGAUCUGAAAUAUUGCGGUCUGCAGAUCGGAAGAGCACACGU
B8: target 3 insG 3' of 22,insG 3' of 5 (mixed)
RNA 1: CACCCGUGCAAAAUUGCAGGGGUCUAAAACGACCUGAAUAUUUCAGAUCAAA
RNA 2: GGGAAUGGAUCCACAUCUACGAAUUCGUUUGUUGAUCUGAAAUAUUCAGGGUCUGCAGAUCGGAAGAGCACACGU
B9: target 3 insC 3' of 11,insA 3' of 2 (mixed)
RNA 1: CACCCGUGCAAAAUUGCAGGGGUCUAAAACGACCUGAAUAUUUCAGAUCAAA
RNA 2: GGGAAUGGAUCCACAUCUACGAAUUCGUUUUUGAUCUGAAACUAUUCAGGUACUGCAGAUCGGAAGAGCACACGU
B10: target 3 insG 3' of 2,insA 3' of 2 (mixed)
RNA 1: CACCCGUGCAAAAUUGCAGGGGUCUAAAACGACCUGAAUAUUUCAGAUCAAA
RNA 2: GGGAAUGGAUCCACAUCUACGAAUUCGUUUUUGAUCUGAAAUAUUCAGGUGACUGCAGAUCGGAAGAGCACACGU
B11: target 3 G4A,U7C (mixed)
RNA 1: CACCCGUGCAAAAUUGCAGGGGUCUAAAACGACCUGAAUAUUUCAGAUCAAA
RNA 2: GGGAAUGGAUCCACAUCUACGAAUUCGUUUUUGAUCUGAAAUAUCCAAGUCUGCAGAUCGGAAGAGCACACGU
B12: target 3 complement block 5-9 (mixed)
RNA 1: CACCCGUGCAAAAUUGCAGGGGUCUAAAACGACCUGAAUAUUUCAGAUCAAA
RNA 2: GGGAAUGGAUCCACAUCUACGAAUUCGUUUUUGAUCUGAAAUUAAGUGGUCUGCAGAUCGGAAGAGCACACGU
B13: target 3 insG 3' of 5,insU 3' of 4 (mixed)
RNA 1: CACCCGUGCAAAAUUGCAGGGGUCUAAAACGACCUGAAUAUUUCAGAUCAAA
RNA 2: GGGAAUGGAUCCACAUCUACGAAUUCGUUUUUGAUCUGAAAUAUUCAGGUGUCUGCAGAUCGGAAGAGCACACGU
B14: target 3 insA 3' of 8 (mixed)
RNA 1: CACCCGUGCAAAAUUGCAGGGGUCUAAAACGACCUGAAUAUUUCAGAUCAAA
RNA 2: GGGAAUGGAUCCACAUCUACGAAUUCGUUUUUGAUCUGAAAUAUAUCAGGUCUGCAGAUCGGAAGAGCACACGU
B15: target 3 G4C,U7G (mixed)
RNA 1: CACCCGUGCAAAAUUGCAGGGGUCUAAAACGACCUGAAUAUUUCAGAUCAAA
RNA 2: GGGAAUGGAUCCACAUCUACGAAUUCGUUUUUGAUCUGAAAUAUGCACGUCUGCAGAUCGGAAGAGCACACGU
B16: target 3 insG 3' of 8,insU 3' of 5 (mixed)
RNA 1: CACCCGUGCAAAAUUGCAGGGGUCUAAAACGACCUGAAUAUUUCAGAUCAAA
RNA 2: GGGAAUGGAUCCACAUCUACGAAUUCGUUUUUGAUCUGAAAUAUGUCAUGGUCUGCAGAUCGGAAGAGCACACGU
B17: target 3 insA 3' of 7,insA 3' of 3 (mixed)
RNA 1: CACCCGUGCAAAAUUGCAGGGGUCUAAAACGACCUGAAUAUUUCAGAUCAAA
RNA 2: GGGAAUGGAUCCACAUCUACGAAUUCGUUUUUGAUCUGAAAUAUUACAGGAUCUGCAGAUCGGAAGAGCACACGU
B18: target 3 insU 3' of 22,insC 3' of 4 (mixed)
RNA 1: CACCCGUGCAAAAUUGCAGGGGUCUAAAACGACCUGAAUAUUUCAGAUCAAA
RNA 2: GGGAAUGGAUCCACAUCUACGAAUUCGUUUUUUGAUCUGAAAUAUUCAGCGUCUGCAGAUCGGAAGAGCACACGU
B19: target 3 A13G,A18G (mixed)
RNA 1: CACCCGUGCAAAAUUGCAGGGGUCUAAAACGACCUGAAUAUUUCAGAUCAAA
RNA 2: GGGAAUGGAUCCACAUCUACGAAUUCGUUUUUGGUCUGGAAUAUUCAGGUCUGCAGAUCGGAAGAGCACACGU
B20: target 3 C1G,A9C (mixed)
RNA 1: CACCCGUGCAAAAUUGCAGGGGUCUAAAACGACCUGAAUAUUUCAGAUCAAA
RNA 2: GGGAAUGGAUCCACAUCUACGAAUUCGUUUUUGAUCUGAAAUCUUCAGGUGUGCAGAUCGGAAGAGCACACGU
B21: target 3 G3A,A18G (mixed)
RNA 1: CACCCGUGCAAAAUUGCAGGGGUCUAAAACGACCUGAAUAUUUCAGAUCAAA
RNA 2: GGGAAUGGAUCCACAUCUACGAAUUCGUUUUUGGUCUGAAAUAUUCAGAUCUGCAGAUCGGAAGAGCACACGU
B22: target 3 G3A,C6G (mixed)
RNA 1: CACCCGUGCAAAAUUGCAGGGGUCUAAAACGACCUGAAUAUUUCAGAUCAAA
RNA 2: GGGAAUGGAUCCACAUCUACGAAUUCGUUUUUGAUCUGAAAUAUUGAGAUCUGCAGAUCGGAAGAGCACACGU
B23: target 3 insG 3' of 5,insC 3' of 3 (mixed)
RNA 1: CACCCGUGCAAAAUUGCAGGGGUCUAAAACGACCUGAAUAUUUCAGAUCAAA
RNA 2: GGGAAUGGAUCCACAUCUACGAAUUCGUUUUUGAUCUGAAAUAUUCAGGGCUCUGCAGAUCGGAAGAGCACACGU
B24: target 3 A11C,G14U (mixed)
RNA 1: CACCCGUGCAAAAUUGCAGGGGUCUAAAACGACCUGAAUAUUUCAGAUCAAA
RNA 2: GGGAAUGGAUCCACAUCUACGAAUUCGUUUUUGAUCUUAACUAUUCAGGUCUGCAGAUCGGAAGAGCACACGU
B25: target 3 U2G,U7C (mixed)
RNA 1: CACCCGUGCAAAAUUGCAGGGGUCUAAAACGACCUGAAUAUUUCAGAUCAAA
RNA 2: GGGAAUGGAUCCACAUCUACGAAUUCGUUUUUGAUCUGAAAUAUCCAGGGCUGCAGAUCGGAAGAGCACACGU
B26: target 1 U11G,A14G (mixed)
RNA 1: CACCCGUGCAAAAAUGCAGGGGUCUAAAACUGAGCGGAUAACCUCUCUAUGG
RNA 2: GGGAAUGGAUCCACAUCUACGAAUUCGUACCAUAGAGGGGGUAUCCGCUCACCGAGAUCGGAAGAGCACACGU
B27: target 1 insC 3' of 8,insU 3' of 7 (mixed)
RNA 1: CACCCGUGCAAAAAUGCAGGGGUCUAAAACUGAGCGGAUAACCUCUCUAUGG
RNA 2: GGGAAUGGAUCCACAUCUACGAAUUCGUACCAUAGAGAGGUUAUCCUCGCUCACCGAGAUCGGAAGAGCACACGU
B28: target 1 U3A,C6U (mixed)
RNA 1: CACCCGUGCAAAAAUGCAGGGGUCUAAAACUGAGCGGAUAACCUCUCUAUGG
RNA 2: GGGAAUGGAUCCACAUCUACGAAUUCGUACCAUAGAGAGGUUAUCUGCACACCGAGAUCGGAAGAGCACACGU

molecular target: T1, EsCas13d, nuclease-dead; assay: crRNA (strand 1, pre-loaded); Mg2+; 40 mM Tris-HCl pH 7.5, 150 mM NaCl, 6 mM MgCl2, 1 mM DTT, 0.1% Tween-20, 0.2 mg/ml BSA; 25 C; 10 min per concentration, then washed; conditions: tags: His6-TwinStrep-SUMO cleaved; N-terminal SNAP kept (SNAP-Surface 488); label: 3' end held by stalled T7 RNA polymerase

Going from B1 to B2, the Kd falls from 73 ± 29.5 nM to 33.1 ± 4.2 nM (2.2-fold). The second binds more tightly here.

B3 and B4 are within error of each other in Kd: 47 ± 10.5 nM for the first, 81 ± 31 nM for the second.

Going from B5 to B6, the Kd falls from 77.5 ± 14 nM to 39.5 ± 6 nM (2-fold).

B7 and B8 are within error of each other in Kd: 53.5 ± 5.5 nM for the first, 41.5 ± 18 nM for the second.

First: B9
Second: B10
The Kd of the first is 2.2-fold higher: 45.5 ± 11.5 nM for the first, 20.3 ± 2.6 nM for the second. The second binds more tightly here.

B11 and B12 are within error of each other in Kd: 71 ± 12.5 nM for the first, 90 ± 9.5 nM for the second.

Going from B13 to B14, the Kd rises from 20.4 ± 1.8 nM to 50.5 ± 10 nM (2.5-fold). The first binds more tightly here.

B15 and B16 are within 1.5-fold of each other in Kd: 44.1 ± 4.1 nM for the first, 31.7 ± 2.8 nM for the second.

First: B17
Second: B18
The Kd of the first is 1.9-fold higher: 37 ± 4.5 nM for the first, 19.5 ± 4.5 nM for the second. The second binds more tightly here.

First: B19
Second: B20
The Kd of the first is 1.9-fold higher: about 100 nM for the first, 54 ± 18 nM for the second.

B21 and B22 are within error of each other in Kd: 55 ± 13 nM for the first, 46.5 ± 7 nM for the second.

B23 and B24 are within error of each other in Kd: 76 ± 12.5 nM for the first, 56.5 ± 27 nM for the second.

B25 and B26 are within 1.5-fold of each other in Kd: 28 ± 4.5 nM for the first, 22.1 ± 1.3 nM for the second.

Compared with B27, B28 is 2.6-fold lower in Kd: 13.6 ± 1.1 nM for the first, 5.27 ± 0.27 nM for the second.
